Reference: the nanobody polyreactivity screen of Harvey et al. (2022)

Assay: yeast display, Sf9 membrane polyspecificity reagent, FACS + sequencing; frameworks hold sequencing errors
How it was run: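 Polyreactivity labels are assigned by the sorting gate from which each nanobody was recovered. The gates were low and high (top ~1%), set on anti-HA fluorescence for expression and streptavidin fluorescence for reagent binding. Before sorting, galactose-induced (36–48 hours) yeast display cells were stained for 1 hour at 4 °C with 10% biotinylated, detergent-solubilized Sf9 membrane reagent.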

Row | Sequence | polyreactivity (PSR sort gate)
1 | QVQLVESGGGLVQAGGILRLSCAASGFTFVGNAMGWYRKAAGKERELVATITSGGNTKYADSVKGRFTISRDNAKNTVYLQMNSLTPEDTAVYYCAAAKYNYRRFKYWGQGTQVTVSS | low polyreactivity
2 | QVQLVESGGGFVQAGGSLRLSCAASGRIFPGYAKGWYRQAPGKERELVAAISASGGSTYYADSVKGRFTISRDNAKNTVYLQMNSLKPEDTAVYYCNAVYRRYEYWGQGTQVTVSS | high polyreactivity
3 | QVKLVESGGGLVQAGGSLRLSCAASGLTYLYTMGWSRQAPGKERELVAAITRSGRTYYADSVKGRFTISRDNAKNTVYLQMNSLKPEDTAVYYCATRTGYQQPDGRYYYWGQGTQVTVSS | high polyreactivity
4 | QVQLVESGGGLVHAGGSLRLSCAASGSIFRRNAMGMSRQAPGKERELVASITSGASTYYADSVKGRFTISRDNAKNTVYIQMNSLKPEDTAVYYCAADIFVTAFASPMDYWGQGTQVTVSS | low polyreactivity
5 | QVQLVESGGGLVQAGGSLRLSCAASGYTFRYYGMGWYRQAPGKERELVADINSNGVRTYYADSVKGRFTISRDNAKNTVYLQMNSLKPEDTAVYYCNKDWGRYRYDYWGQGTQVNVSS | high polyreactivity
6 | QVQLGESGGGLLQAGGSLRLSCAASGFTFYGYAMGWYRQAPGKERELVAAISRRGGSTYYADSVKGRFTISRDNAKYTVYVQMNSLKPEDTAVYYCITLFSHLRDRYDYWGQGTEVTVSS | high polyreactivity
7 | QVQLVESGGGLVQAGGSLRLSCAASGSIFYYKYAMGWYRQAPGKERELVAAITSTGGTTYYADSVKGRFTISRDNAKNTVYLQMNSLKPEDTAVYYCAALAPYIGGVDYDYWGQGTQVTVSS | low polyreactivity
8 | QVQLVESGGGLVQAGGSLRLSCAASGFIFTYNTMGWDRQAPGKERELVAAISLRGGNTYYADSVKGRFTISRDNAKNTVYLQMHSLKPEDTAVYYCAALGKYRSGNYFGQGTQVTVSS | high polyreactivity
9 | QVQLVESGGGLVQAGGSLRLSCAASGTFVTYMGWYRQAPGKERELVAAIRNGGSTNYADSVKGRFTISRDNAKNTVYLQMNSLKPEDTAVYYCAADRAGSIMNYWGQGTQVTVSS | low polyreactivity
10 | QVQLVESGGGLVQAGGSLRLSCAASGSIFYVYAMGWYRQAPGKERELVAAINTSGGSTFYADSVKGRFTISRDNAKNTVYLQMNSLKPEDTAVYYCAAERFRYRSTDTMGYWGQGTQVTVSS | low polyreactivity
11 | QVQLVESGGGLVQAGGSLRLSCAASGSTFSIYAMGWYRQAPGKERELVADITANGGSTYYADSVKGRFTISRDNAKNTVYLPMNSLKPEDTAVYYCAADAKSFDAVHYDYWGQGTHVTVSS | low polyreactivity
12 | QVQLVESGGGLVQAGGSLRLSCASSGSIFPEYDMVWYRQAPGKERELVASISSGGSSTYYADSVKGRFTISRDNAMNTVYLQMNSLKPEATAVYYCARRRSYKRGFDYWGQGTQVTVSS | low polyreactivity
13 | QVQLVESGGGLVQAGGSLRLSCAASGFIFGTYAMGWYRQAPGKERELVAAISQSGGRTYYADSVKGRFTISRDNAKNTVYLQMNSLKPEDTAVYYCAAYRYVRYDYWGQGTQVTVSS | high polyreactivity
14 | QVQLVESGGGLVPAGGSLRLSCAASGFTFRRYDMGWYRHAPGKERELVAAISWSSDGTYYADSVKGRFTISRDNAKNTVYLQINSLKPEDTAVYYCAARWGTKSGRYDYWGQGTQVTVSS | high polyreactivity
15 | QFQLVESGGGLVQAGGSLRLSCAASGITFSNYALGWYRQAPGKERELVAAISKRGGSTYYADSVKGRFTISRDNAKTTVDLQMNSLKPEDTAVYYCAADAYNPPYWVDPYDYWGQGTQVTVSS | high polyreactivity
16 | QVQLVESGGGLVQAGGSLPLTCAASGRILRAYAMGWYRQAPGNEMELVAAISFSGGSTYYADSVKGRFTISRDYAKNYVYLQINSLKPEDTAVYYCNALYTSYYRPSCMGYWGQGTQVTVSS | high polyreactivity
17 | QVQLVESGGGLVQAGGSLRLSCAASGSIFTLYAMGWYIQAPGKEREFVAGMSFSTGRTYYADSVKGRFTISRDNAKNTVYLQMHSLTPEDTAGYYCAAYVSHYWYGLYRDGYWGQGTQATVSS | low polyreactivity
18 | QVQLVESGGGLVQAGGSLRLSCAASGLTFVDYAMGWYRQAPGKERELVAAISWSGGSTYYADSVKGRFTISRDIAKNTVYLQMNSLKPEDTAVYYCAAETQGWYPWGFYWGQCTQVTVSS | low polyreactivity
19 | QVQLVESGGGLVQAGGSLRLSCAASGIIFDSYAMGLYRQAPGKERELVAAITSRGGRTYYADSVKRRFTISRENAKNTVYLQMNSLKPEDTAVYYCAARAIYDRRTEGTSGYDYWGPGTQVTVSS | low polyreactivity
20 | QVQLVESGGGLVQAGGSLRLSCAASGYLFSYYAMGWSRQAPGKERELVATIDWGGGSTYYADSVKGRFTISRDNAKNTVYLQMNSLKPEDTGVYYCSKDYYITKYGYRYDSWGQGTQVTVSS | low polyreactivity
21 | QVQLVESGGGLVQAGGSLRLSCAASGSIFTPYAMGWYRQAPGKEWELVAAISWRGCNTYYADSVKGRFTISRDNAKNTVYLQMNSLKPEDTAVYYCAAEQNYVYETGSYDYWGQGTQVTVSS | low polyreactivity
22 | QVQLVESGGGLVQAGGSLRLSCAASGNTLYSYAMGWYRQAPGKERELVAAITKSGGRTYYADSVKGRFTISRDNAKNTVYLQMNSLKPEDTADYYCNAVFLPTYHFDYWGQGTQVTVSS | high polyreactivity

Row | Sequence | polyreactivity (PSR sort gate)
23 | QVQLVESAGGLVQAGGSLPLSCAASGRTFQTNLMGWYRQAPGKERELVAAITLSGGSTNYADSVKVRFTISRDNAKKTVYLQMNSLKPEDTAVYYCNAERRYRHQLTPHYEYDYWGKGTQVTVSS | low polyreactivity
24 | QVQLVESGGGLVQAGGSLRLSCAASGRTLAPYAMGWYRQAPGKARELVADIDRGGGSTYYADSVKGSFTISRDNAKNTVYLQMNSLKPEDTAVYYCNVDEPGVLVAYSLDFWGQGSQVTVSS | low polyreactivity
25 | QVQLQESGGGLVQAGGRLRLSCAASGTISGPHVMGWYRQAPGKEREFFAAINVGANTYYADNVKGRYTISRDNAKNTVYLQMNSLKPEDTAVYYCAAVYYGDIGHEYWGQGTQVTVSC | low polyreactivity
26 | QVQLVESGGGLVQAGGSLRLSCAASGFTFGTYTMGWYRQAPGKERELVAAIRSSGGRTYYADSVKGRFTISRDNAKNTVYLQMNSLKPEDTAVYYCAAVLFGYPRTFGTWYDRYYYWGQGTQVTVSS | high polyreactivity
27 | QVQLVESGGGLVQAGGSLRISCAASGYTFYSNAMGWYRQAPGKERELVASIRSRGRSTYYADSVKGRFTISRDNAKYSVYLQMNSLNPEDTAVYYCAALRNKPAVYAYDYWGQGTQVTVSS | low polyreactivity
28 | QVQLVESGGGLVQAGGSLRLSCAASGRTFRKYAMGGYRHAPGKEREFVASITWSGGSTYYADSVKGRFTISRDNAKNTVYLQMNSLKPEDTAVYFCAAESWFKYVYWGQGTQVTVSS | low polyreactivity
29 | QVQLVESGGGLVQAGGSLRLSCAASGRTFDSNAMGWYRQAPGKERELVAAIYADSVKGRFTISRDNAKNTVYLQMNSLKPEDTAVYYCAAETYSGQTYLGEYDYWGQGTEVTVSS | low polyreactivity
30 | QVQLVESGGGLVQAGGSLRLTCAASGRIFGSYAMGWYRQAPGKERELVAAITRRGGSTYYADSVKGRFTISRDNAKNTVYLQMNSLKPEDTAVYYCAPERTSAYDYWGQGTQVTVSS | high polyreactivity
31 | QVQLVESGGGLVQAGGSLRLSCAASGSTNYPNAMGWYRQAPGKESELVARISRNGGSTYADSVKGRFTISRDNAKNTVYFQMNSLKPEDTEVYYCARSYASFSWLRTKEPYEYWGQGTQVTVSS | low polyreactivity
32 | QVQLVESGGGLVQAGGSLRLSCAASGSTFYVYAMGWYRQAPGKERELVAAIDGSTGSTYYADSVKGRFTISRDNAKNTVYLQMNSLKPEDTAVYYCNAESIPPYSITKFDYWGQGTQGTVSS | low polyreactivity
33 | QVQLVESVGGLVQAGGSLRLSCAASGRTLLYNAMGWYRQAPGKERELVAAISRGGSTYYADSVNGRFTISRDNAKNTVYLQMNSLKPEDTAVYYCATGTWRYRYDYWGQGTQVTVSS | low polyreactivity
34 | QVQLVESGGGLVQAGCSLRLSCAASGSTYIRNAMGWYRQAPGKERELVAAISTSGSRTYYADSVKGRFTISRDNAKNTVYLQMNSLKPEDTAVYYCAKVPAGSRIEYDYCGQGTQVTVSS | high polyreactivity
35 | QVQLVESGGGLVQAAGSLRLSCAASGRIFKLYAMGWYRQAPGKDRELVAGITASGGNTYYADSVKGRFTISRDNAKNTVYLLMNSLKPEDTAVYYCNADRYNKYWYDYWGQGTQVTVSS | high polyreactivity
36 | QVQRVESGGGLVQAGGRLRLSCAASGSTFLYNAMGWYRQAPGKERELVATISSGGGSTNYADSVKGRFTNSRDNAKNTVYLPMNSLKPEDTAVYYCAVEGYDSYKDDYWGQGTQVTVSS | low polyreactivity
37 | QVQLVESGGGLVQAGGSLRLSCAASGRIFPTYAMGWYRQAPGKERELVAAITWRGGRTYYADSEKGRFTISRDYAKNTVYLQMNSLKPEDTAVYYCAAGWLTRSYEYDYWGQGTQVTVSS | high polyreactivity
38 | QVQLVESGGGLVQAGGSLRLSCAASGRIFPSYAMGWYRQAPGKERELVAAISYSGASTYYADSVKGRFTFSRDNAKNTVYLQMNSLKPEDTAVYYCNAESGPKYYWGYAGTFDYWGQGTQVTVSS | low polyreactivity
39 | QVQLVESGGGLVQAGGSLRLSCAASGRIFFRNAMGWYRQAPGKERELVAAITYSGGSTYYADSVKGRFTISRDNAKNTVYFQMNSLKPEDTAVYYCYADYYPYGEYDYWGQGTQVTVSS | high polyreactivity
40 | QVQLVESGGGLVQAGGSLRLSFAASGSILYIYAMGWYRQAPGKERELVASISRSGGRTYDADSVNGRFTISRDNAKNTVYLQMNSLKPEDTAVYYCDAVTGGGSKMDYWGQGTQVTVSS | high polyreactivity
41 | QVQLVESGGGLVQAGGSLRLSCAASGSIFVHNAMGWYRQAPGKERELVAAISSNGGRTYYADSVKGRFTISRDNAKNTVYLQMNSLKPEDTAVYYCNAPRFVGLNVYGYDYWGQGTQVTVSS | high polyreactivity
42 | QVQLVESGGGLVQAGGSLRLSCAASGIIFYKYAMGWYRQAPGKERELVAAITSGGGRTYYADSVKGRFTISRDNAKNTVYLQMNSLKPEDTAVYYCAATRPATYAAYDYWGQGTQVTVSS | high polyreactivity
43 | QVQLVESGGGLVQAGGSLRLSCAASGSIFHDNAMGWYRQAPGKERELVAAITTSGGNTYYADSVKGRFTISRDNAKNTVYLQMNSLKPEDTAVYYCAADTLGKYDYWGQGTQVTVSS | low polyreactivity
